Measurements reported in patent publication US20150010572A1 (SAMSUNG ELECTRONICS, published 2015).

Assays:
[1] = target: T1, Ang-2 (R&D systems; 623-AN-025/CF) (human, UniProt O15123 19-496); assay: cell-based or functional assay
T1 sequence: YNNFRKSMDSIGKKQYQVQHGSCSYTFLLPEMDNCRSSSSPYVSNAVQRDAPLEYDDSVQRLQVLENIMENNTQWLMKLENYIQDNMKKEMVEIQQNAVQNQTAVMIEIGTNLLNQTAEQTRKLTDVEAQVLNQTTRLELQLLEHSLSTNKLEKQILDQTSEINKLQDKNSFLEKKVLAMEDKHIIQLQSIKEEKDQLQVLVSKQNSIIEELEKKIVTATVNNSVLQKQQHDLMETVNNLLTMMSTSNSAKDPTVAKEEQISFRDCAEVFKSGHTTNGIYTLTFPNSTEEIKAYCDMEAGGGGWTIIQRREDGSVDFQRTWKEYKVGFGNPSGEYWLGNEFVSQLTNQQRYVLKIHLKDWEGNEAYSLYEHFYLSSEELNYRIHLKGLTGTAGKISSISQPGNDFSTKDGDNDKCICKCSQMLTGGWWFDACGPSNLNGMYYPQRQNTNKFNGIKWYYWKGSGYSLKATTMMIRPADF

[2] = target: mutant Ang-2 protein, A449 substituted with alanine (FLAG-tagged at N-terminal) (human) (UniProt O15123); assay: ELISA, antibody coated, 250 ng FLAG-tagged mutant Ang-2, anti-FLAG-HRP, OD450 relative to native Ang-2
[3] = target: T2, integrin alpha5beta1 (R&D systems) (human, UniProt P08648 42-995; P05556 21-728); assay: ELISA, integrin coated at 5 ug/ml, FLAG-Ang-2 10 ug/ml, anti-FLAG-HRP
T2 construct: Bought heterodimer coated on an ELISA plate; also called α5β1
T2 sequence (P08648 42-995 limits assumed, chain 1 of 2): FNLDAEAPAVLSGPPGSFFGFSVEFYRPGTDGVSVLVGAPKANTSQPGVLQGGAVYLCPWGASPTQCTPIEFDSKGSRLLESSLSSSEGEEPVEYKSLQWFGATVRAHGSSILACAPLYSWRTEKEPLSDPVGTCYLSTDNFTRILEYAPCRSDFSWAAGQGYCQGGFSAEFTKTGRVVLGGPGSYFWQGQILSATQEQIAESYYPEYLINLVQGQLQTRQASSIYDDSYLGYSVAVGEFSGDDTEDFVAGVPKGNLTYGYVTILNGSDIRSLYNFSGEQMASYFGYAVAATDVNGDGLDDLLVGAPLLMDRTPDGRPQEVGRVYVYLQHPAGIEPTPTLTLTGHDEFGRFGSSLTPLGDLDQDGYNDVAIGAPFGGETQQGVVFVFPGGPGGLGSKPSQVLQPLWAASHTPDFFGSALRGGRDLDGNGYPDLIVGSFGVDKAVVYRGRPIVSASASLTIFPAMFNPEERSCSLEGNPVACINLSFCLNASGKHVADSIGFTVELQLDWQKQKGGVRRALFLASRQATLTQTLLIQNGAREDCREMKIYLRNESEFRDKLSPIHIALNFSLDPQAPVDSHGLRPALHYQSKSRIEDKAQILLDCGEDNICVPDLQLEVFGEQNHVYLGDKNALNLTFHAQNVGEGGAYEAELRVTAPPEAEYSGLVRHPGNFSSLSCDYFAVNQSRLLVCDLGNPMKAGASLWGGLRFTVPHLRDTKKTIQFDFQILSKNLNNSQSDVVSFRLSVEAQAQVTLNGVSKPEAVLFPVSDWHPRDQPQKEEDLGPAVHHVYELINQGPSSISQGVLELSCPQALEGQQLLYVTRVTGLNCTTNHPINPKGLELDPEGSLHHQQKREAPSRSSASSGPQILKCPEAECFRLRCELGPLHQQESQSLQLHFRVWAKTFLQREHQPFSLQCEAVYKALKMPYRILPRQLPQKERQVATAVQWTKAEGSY
T2 sequence (P05556 21-728 limits assumed, chain 2 of 2): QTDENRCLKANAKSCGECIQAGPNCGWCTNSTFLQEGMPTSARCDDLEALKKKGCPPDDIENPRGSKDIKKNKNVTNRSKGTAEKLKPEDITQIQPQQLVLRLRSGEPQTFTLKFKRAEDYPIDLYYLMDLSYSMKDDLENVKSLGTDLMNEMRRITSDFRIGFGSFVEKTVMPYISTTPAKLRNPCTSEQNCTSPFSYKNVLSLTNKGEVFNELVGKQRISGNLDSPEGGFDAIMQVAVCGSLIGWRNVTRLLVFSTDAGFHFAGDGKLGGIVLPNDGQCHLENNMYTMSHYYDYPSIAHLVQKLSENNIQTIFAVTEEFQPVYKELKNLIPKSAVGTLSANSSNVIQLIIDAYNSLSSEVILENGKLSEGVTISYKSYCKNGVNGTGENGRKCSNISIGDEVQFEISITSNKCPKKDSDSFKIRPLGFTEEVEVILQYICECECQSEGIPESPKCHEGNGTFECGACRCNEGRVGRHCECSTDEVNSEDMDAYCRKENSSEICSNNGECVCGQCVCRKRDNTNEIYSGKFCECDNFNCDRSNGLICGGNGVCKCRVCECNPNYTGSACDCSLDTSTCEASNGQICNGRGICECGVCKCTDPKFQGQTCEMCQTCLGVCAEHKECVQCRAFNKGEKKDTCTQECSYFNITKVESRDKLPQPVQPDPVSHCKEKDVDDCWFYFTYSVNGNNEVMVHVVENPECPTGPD
Experimental: (§1) An ELISA plate was coated with diluting solutions of three kinds of integrin (integrin; alpha5beta1 (α5β1; α5: NCBI Accession No. P08648, β1: NCBI Accession No. P05556), alphaVbeta1 (αVβ1; αV: NCBI Accession No. P06756, β1: NCBI Accession No. P05556), and alphaVbeta3 (αVβ3; αV: NCBI Accession No. P06756, β3: NCBI Accession No. P05106); R&D systems) proteins diluted in PBS at a concentration of 5 μg/ml (18 hours, 4° C.) and then blocked with 1% (v/v) BSA at a room temperature for 1 hour. Thereafter, the plate was treated with Ang-2 protein (FLAG-Ang-2, 0.1 ml of Ang-2 protein solution diluted in PBS at a concentration of 10 μg/ml) tagged with a FLAG sequence ([…], Sigma) at N-terminal, incubated at a room temperature for 2 hours, and washed five times with 0.05% PBST (0.05% (v/v) Tween-20-containing phosphate buffer saline). After that, an anti-FLAG antibody (Sigma) conjugated with horseradish peroxidase (HRP) was added to react, and the plate was washed again five times with PBST. Bindings between Ang-2 and the three kinds of integrins were identified indirectly by measuring the amounts of the anti-FLAG antibody remaining in the ELISA plate via color development reaction using TMB (3,3,5,5-tetramethylbenzidine) as a substrate of HRP. As a negative control, those that were blocked only (treated with BSA only) without Ang-2 protein treatment were used.

[4] = target: T3, integrin alphaVbeta1 (R&D systems) (human, UniProt P06756 31-992; P05556 21-728); assay: as above
T3 construct: Bought heterodimer coated on an ELISA plate; also called αVβ1
T3 sequence (P06756 31-992 limits assumed, chain 1 of 2): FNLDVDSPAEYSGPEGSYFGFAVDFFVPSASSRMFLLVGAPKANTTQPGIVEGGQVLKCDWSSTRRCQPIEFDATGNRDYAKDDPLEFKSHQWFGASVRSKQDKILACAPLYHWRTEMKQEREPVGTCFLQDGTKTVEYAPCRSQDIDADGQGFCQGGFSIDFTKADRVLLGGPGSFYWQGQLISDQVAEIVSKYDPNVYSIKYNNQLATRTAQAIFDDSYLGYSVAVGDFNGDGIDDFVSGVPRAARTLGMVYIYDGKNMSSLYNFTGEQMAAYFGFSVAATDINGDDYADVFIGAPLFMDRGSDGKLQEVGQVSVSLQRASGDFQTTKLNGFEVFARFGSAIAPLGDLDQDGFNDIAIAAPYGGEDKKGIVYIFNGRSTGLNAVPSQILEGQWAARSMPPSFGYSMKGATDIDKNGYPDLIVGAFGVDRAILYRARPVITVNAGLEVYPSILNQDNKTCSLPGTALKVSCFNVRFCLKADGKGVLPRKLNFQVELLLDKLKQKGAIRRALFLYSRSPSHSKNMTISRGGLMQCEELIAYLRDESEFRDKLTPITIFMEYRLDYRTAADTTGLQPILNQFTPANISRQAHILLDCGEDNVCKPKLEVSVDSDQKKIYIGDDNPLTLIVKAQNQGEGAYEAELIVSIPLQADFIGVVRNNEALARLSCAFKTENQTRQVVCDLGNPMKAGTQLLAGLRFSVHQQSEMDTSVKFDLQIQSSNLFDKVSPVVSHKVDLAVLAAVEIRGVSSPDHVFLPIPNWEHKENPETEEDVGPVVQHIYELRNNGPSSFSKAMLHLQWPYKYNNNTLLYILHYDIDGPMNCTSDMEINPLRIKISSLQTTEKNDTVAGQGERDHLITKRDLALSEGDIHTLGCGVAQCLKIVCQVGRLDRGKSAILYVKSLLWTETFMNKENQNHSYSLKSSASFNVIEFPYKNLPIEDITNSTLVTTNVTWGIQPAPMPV
T3 sequence (P05556 21-728 limits assumed, chain 2 of 2): as the sequence (P05556 21-728 limits assumed, chain 2 of 2) above
Experimental: as §1

[5] = target: T4, integrin alphaVbeta3 (R&D systems) (human, UniProt P06756 31-992; P05106 27-718); assay: as above
T4 construct: Bought heterodimer coated on an ELISA plate; also called αVβ3; purified alphaVbeta3 protein
T4 sequence (P06756 31-992 limits assumed, chain 1 of 2): as the sequence (P06756 31-992 limits assumed, chain 1 of 2) above
T4 sequence (P05106 27-718 limits assumed, chain 2 of 2): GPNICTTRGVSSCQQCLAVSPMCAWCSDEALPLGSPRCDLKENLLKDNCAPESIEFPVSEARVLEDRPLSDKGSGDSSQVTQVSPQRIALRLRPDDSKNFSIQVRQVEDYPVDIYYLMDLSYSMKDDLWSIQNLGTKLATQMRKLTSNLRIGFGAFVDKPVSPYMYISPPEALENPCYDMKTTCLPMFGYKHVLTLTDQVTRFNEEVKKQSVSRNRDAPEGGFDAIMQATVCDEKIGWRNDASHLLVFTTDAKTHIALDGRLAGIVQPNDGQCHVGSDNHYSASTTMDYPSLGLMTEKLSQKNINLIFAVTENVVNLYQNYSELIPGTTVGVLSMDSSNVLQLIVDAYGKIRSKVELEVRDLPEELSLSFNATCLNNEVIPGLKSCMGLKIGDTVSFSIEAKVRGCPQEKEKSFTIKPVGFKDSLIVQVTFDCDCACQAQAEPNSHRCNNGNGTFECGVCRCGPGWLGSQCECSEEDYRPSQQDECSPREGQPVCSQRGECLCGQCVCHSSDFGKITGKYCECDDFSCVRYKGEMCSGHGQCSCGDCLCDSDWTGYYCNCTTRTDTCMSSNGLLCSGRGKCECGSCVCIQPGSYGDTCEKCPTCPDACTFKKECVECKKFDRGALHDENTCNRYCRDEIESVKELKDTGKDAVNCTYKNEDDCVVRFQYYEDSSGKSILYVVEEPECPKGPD
Experimental: as §1

B1: SAIT-Ang-2-AB-m7F8 (antibody, V domains shown)
VH: DVQLQESGPGLVKPSQSLSLTCTVTGYSITSDYAWNWIRQFPGNKLEWMGYISYSGSTSYNPSLKSRISITRDTSKNQFFLQLNSVTPEDTATYYCARSTFGHYVSSMDYWGQGTSVTVSS
VL: SIVMTQTPKLLLVSAGDRVTITCKASQSASNDVAWYQQKPGQSPKLLIYYASNRYTGVPDRFTGSGYGTDFTFAISTVQAEDLAIYFCQQDYSSPPTFGGGTKLEIK
For B1, the “Ang-2-depedent Cell Adhesion Degree (%)” value [1] was 35.1% and the % at RBD binding (mutant Ang-2 against native Ang-2) [2] was 94.1%.

B2: FLAG-tagged hAng-2 (ligand)
chain: DYKDDDDKYNNFRKSMDSIGKKQYQVQHGSCSYTFLLPEMDNCRSSSSPYVSNAVQRDAPLEYDDSVQRLQVLENIMENNTQWLMKLENYIQDNMKKEMVEIQQNAVQNQTAVMIEIGTNLLNQTAEQTRKLTDVEAQVLNQTTRLELQLLEHSLSTNKLEKQILDQTSEINKLQDKNSFLEKKVLAMEDKHIIQLQSIKEEKDQLQVLVSKQNSIIEELEKKIVTATVNNSVLQKQQHDLMETVNNLLTMMSTSNSAKDPTVAKEEQISFRDCAEVFKSGHTTNGIYTLTFPNSTEEIKAYCDMEAGGGGWTIIQRREDGSVDFQRTWKEYKVGFGNPSGEYWLGNEFVSQLTNQQRYVLKIHLKDWEGNEAYSLYEHFYLSSEELNYRIHLKGLTGTAGKISSISQPGNDFSTKDGDNDKCICKCSQMLTGGWWFDACGPSNLNGMYYPQRQNTNKFNGIKWYYWKGSGYSLKATTMMIRPADF
notes: also called FLAG-Ang-2
B2: binds [3]; binds [4]; binds [5].
